Experiments:
Assay type in all cases: cell-based, human
day 7 neuruloid = test: neuruloid formation with blebbistatin, day 7 immunofluorescence; details: day 7 neuruloid treated with Blebbistatin 5 μM; stained for DAPI, N-CAD, PAX6, COL4 (FIG. 12E)
Excerpt: FIG. 12—related to FIG. 6. (A) RUES2 and 56CAG background distribution within the main cell populations found in the neuruloid. All clusters are well represented in either background although 56CAG has a higher relative proportion of NC and placode cells. (B) Gene ontology analyses using DAVID (www.david.ncifcrf.gov) for NE- and NC-specific DEG between RUES2 and 56CAG. (C) Violin plots showing the distribution of normalized gene expression values for the genes in FIGS. 6B and 6C. (D) qPCR validation of the down-regulation of WNT/PCP and cytoskeleton-associated genes in the 56CAG neuruloid versus WT RUES2. (E) Representative image of a day 7 neuruloid treated with Blebbistatin (5 μM) and stained for DAPI, N-CAD, PAX6, and COL4. (Top) side view, (Bottom) top view.
In order to unravel the molecular mechanisms underlying the morphogenetic defect, single-cell RNA-seq data of neuruloids in WT and 56CAG background was explored. All major cell populations found in the WT neuruloid were also present in the 56CAG background, supporting the lack of influence on fate specification (FIG. 12A). […] Using Seurat to identify differentially expressed genes (DEG) between 56CAG and RUES2 cell lines, 499 misregulated genes specific to the NE (adjusted p-value ≤0.05 and a minimum percentage difference in cells expressing the gene ≥10%) and 663 specific for the NC population was found (FIG. 6E). […]

pSMAD1 = test: signaling dynamics time-course after BMP4 presentation (immunofluorescence, western blot)
Description: FIG. 4 depicts coupling of cell fate specification with a two-step morphogenesis mechanism during neuruloid formation. (A) (Top) time course immunofluorescence analysis of the neuruloid from day 3 to 4. Day 3 micropattern colonies were treated with BMP4 (3 ng/ml) for 1, 3, 5, 10, and 24 hours then stained with PAX6, pSMAD1, and TFAP2A. (Bottom Left) Western blot analysis of the micropattern colonies treated with BMP as above. Sample were stained with anti-pSMAD1/5 antibody. Anti-total SMAD antibody was used as a control. (Bottom Right) Quantification of the western blot analysis. (B) Time-lapse video microscopy imaging of neuruloid formation from day 3 to 6 using the live reporter line (PAX6::H2B-Citrin and SOX10::H2B-tdTomato). Images were recorded every 30 min from day 3 to the end of day 5 (66 hours total). Representative images are shown (a; first image of day 3, b; first image of day 4, c; first image of day 5, d; last image of day 5). […] (E) Associated quantification of PAX6, SIX1, and SOX10 area of the neuruloid treated with indicated drugs. […]
To uncover the molecular mechanisms of neuruloid self-organization, the signaling dynamics over a time-course after BMP4 presentation was followed. […] Only a few SOX10+ cells were detected during this initial phase, but a large expansion occurred in the SOX10 area concomitant with the PAX6 domain condensation starting at day 5. […]

[1] = tested on: 500 μm micropatterned colonies (hESCs, RUES2); test: neuruloid formation at different BMP4 concentrations, day 7 immunofluorescence; details: 500 μm colonies at day 7
Excerpt: FIG. 2 depicts self-organization into neuruloids on micropatterns. (A) Schematic of the neuruloid differentiation protocol. (B) Immunofluorescence imaging of 80, 200 and 500 μm of day 7 micropatterned colonies. Samples were stained with DAPI (gray), PAX6 (green), and N-CAD (orange). (C) Immunofluorescence imaging of 500 μm of day 7 micropatterned colonies. Samples were stained with DAPI (gray), PAX6 (green), and COL4 (Collagen IV, orange). Side view of resliced z-stack around PAX6+ center region, colony edge region is also shown. (D) replicates with PAX6 (green) and SOX10 (red). (E) (Left) Immunofluorescence imaging of 500 μm micropatterned colonies at day 7 with different BMP4 concentrations: 0, 3, 13, and 50 ng/ml. Samples were stained with PAX6 (green), SOX10 (red) and cranial placode marker SIX1 (orange). (Right) Quantifications of SIX1 positive cell number. Data are mean±standard deviation. (F) (Top Left) Sketch of the ectodermal compartment at neurulation in vivo. (Top Right) Sketch of the neuruloid on micropattern. (Middle panel) Side view of the day 7 neuruloid with 3 ng/ml of BMP. Samples were stained with DAPI, PAX6, SOX10, SIX1, and non-neural ectoderm maker TFAP2A. Note that the TFAP2A+ also stain a few SOX10 and SIX1 positive cells. The non-neural ectoderm cells are only TFAP2A positive. (Bottom) Top view by multiple z from bottom to top. All scale bars represent 50 μm. […]

Molecule	central neuro-epithelium morphology (opened versus closed) (day 7 neuruloid)	TFAP2A induction (pSMAD1; 24 hours after BMP4 (3 ng/ml) presentation at day 3)	pSMAD1 signaling after BMP4 presentation (pSMAD1; day 3 colonies treated with BMP4 3 ng/ml for 1, 3, 5, 10, 24 hours (FIG. 4A))	overall spatial distribution of cell types ([1]; BMP4 0, 3, 13 and 50 ng/ml from day 3)	number of SIX1+ cells ([1]; BMP4 0, 3, 13 and 50 ng/ml from day 3 (FIG. 2E, 8H))
Cc1ccc2c(c1)C(=O)C1(O)CCN(c3ccccc3)C1=N2 (centres unmarked) [blebbistatin]	phenocopies the opened neuro-epithelium observed in HD and Htt−/− neuruloids				
BMP4: bone morphogenetic protein (BMP) used as morphogen to drive neuruloid formation (protein, UniProt P12644 293-408, looked up) Bone morphogenetic protein 4: SPKHHSQRARKKNKNCRRHSLYVDFSDVGWNDWIVAPPGYQAFYCHGDCPFPLADHLNSTNHAIVQTLVNSVNSSIPKACCVPTELSAISMLYLDEYDKVVLKNYQEMVVEGCGCR		induction of TFAP2A+ in the same domain	pulse of pSMAD1 restricted to the colony edge	independent of BMP4 concentration	peaked at intermediate levels
